B1: P1-064472 (41F11_VH_F27E) (antibody, V domains shown)
VH: QVQLVESGGGLVKPGGSLRLSCAASGETFSDYYMSWIRQAPGKGLEWVSYISNSGSPIYYADSVKGRFTISRDNAKNSLYLQMNSLRAEDTAVYYCARDLPGWYFDLWGRGTLVTVSS
VL: EIVLTQSPATLSLSPGERATLSCRASQSVSSYLAWYQQKPGQAPRLLIYDASNRATGIPARFSASGSGTDFTLTISSLEPEDFAVYYCQQRNNWPRTFGQGTKVEIK
notes: Kabat positions; also called P1-064472-1
B2: P1-064516 (41F11_Vk_V29D/A64G/R91T/R96Y) (antibody, V domains shown)
VH: QVQLVESGGGLVKPGGSLRLSCAASGFTFSDYYMSWIRQAPGKGLEWVSYISNSGSPIYYADSVKGRFTISRDNAKNSLYLQMNSLRAEDTAVYYCARDLPGWYFDLWGRGTLVTVSS
VL: EIVLTQSPATLSLSPGERATLSCRASQSDSSYLAWYQQKPGQAPRLLIYDASNRATGIPARFSGSGSGTDFTLTISSLEPEDFAVYYCQQTNNWPYTFGQGTKVEIK
notes: also called P1-064516-1
B3: P1-064526 (41F11_VH_D31E/Y50W/S55E/A60H/Y100E) (antibody, V domains shown)
VH: QVQLVESGGGLVKPGGSLRLSCAASGFTFSEYYMSWIRQAPGKGLEWVSWISNSGEPIYYHDSVKGRFTISRDNAKNSLYLQMNSLRAEDTAVYYCARDLPGWEFDLWGRGTLVTVSS
VL: EIVLTQSPATLSLSPGERATLSCRASQSVSSYLAWYQQKPGQAPRLLIYDASNRATGIPARFSASGSGTDFTLTISSLEPEDFAVYYCQQRNNWPRTFGQGTKVEIK
notes: Kabat positions; also called P1-064526-1
B4: P1-064500 (41F11_Vk_Q90DA64G) (antibody, V domains shown)
VH: QVQLVESGGGLVKPGGSLRLSCAASGFTFSDYYMSWIRQAPGKGLEWVSYISNSGSPIYYADSVKGRFTISRDNAKNSLYLQMNSLRAEDTAVYYCARDLPGWYFDLWGRGTLVTVSS
VL: EIVLTQSPATLSLSPGERATLSCRASQSVSSYLAWYQQKPGQAPRLLIYDASNRATGIPARFSGSGSGTDFTLTISSLEPEDFAVYYCQDRNNWPRTFGQGTKVEIK
notes: also called P1-064500-1
B5: P1-064480 (41F11_VH_A60H) (antibody, V domains shown)
VH: QVQLVESGGGLVKPGGSLRLSCAASGFTFSDYYMSWIRQAPGKGLEWVSYISNSGSPIYYHDSVKGRFTISRDNAKNSLYLQMNSLRAEDTAVYYCARDLPGWYFDLWGRGTLVTVSS
VL: EIVLTQSPATLSLSPGERATLSCRASQSVSSYLAWYQQKPGQAPRLLIYDASNRATGIPARFSASGSGTDFTLTISSLEPEDFAVYYCQQRNNWPRTFGQGTKVEIK
notes: Kabat positions; also called P1-064480-1
B6: P1-064484 (41F11_VH_L96E) (antibody, V domains shown)
VH: QVQLVESGGGLVKPGGSLRLSCAASGFTFSDYYMSWIRQAPGKGLEWVSYISNSGSPIYYADSVKGRFTISRDNAKNSLYLQMNSLRAEDTAVYYCARDEPGWYFDLWGRGTLVTVSS
VL: EIVLTQSPATLSLSPGERATLSCRASQSVSSYLAWYQQKPGQAPRLLIYDASNRATGIPARFSASGSGTDFTLTISSLEPEDFAVYYCQQRNNWPRTFGQGTKVEIK
notes: Kabat positions; also called P1-064484-1
B7: P1-064486 (41F11_VH_F100aG) (antibody, V domains shown)
VH: QVQLVESGGGLVKPGGSLRLSCAASGFTFSDYYMSWIRQAPGKGLEWVSYISNSGSPIYYADSVKGRFTISRDNAKNSLYLQMNSLRAEDTAVYYCARDLPGWYGDLWGRGTLVTVSS
VL: EIVLTQSPATLSLSPGERATLSCRASQSVSSYLAWYQQKPGQAPRLLIYDASNRATGIPARFSASGSGTDFTLTISSLEPEDFAVYYCQQRNNWPRTFGQGTKVEIK
notes: Kabat positions; also called P1-064486-1
B8: P1-064478 (41F11_VH_Y50E) (antibody, V domains shown)
VH: QVQLVESGGGLVKPGGSLRLSCAASGFTFSDYYMSWIRQAPGKGLEWVSEISNSGSPIYYADSVKGRFTISRDNAKNSLYLQMNSLRAEDTAVYYCARDLPGWYFDLWGRGTLVTVSS
VL: EIVLTQSPATLSLSPGERATLSCRASQSVSSYLAWYQQKPGQAPRLLIYDASNRATGIPARFSASGSGTDFTLTISSLEPEDFAVYYCQQRNNWPRTFGQGTKVEIK
notes: Kabat positions; also called P1-064478-1
B9: P1-064494 (41F11_Vk_A25EA64G) (antibody, V domains shown)
VH: QVQLVESGGGLVKPGGSLRLSCAASGFTFSDYYMSWIRQAPGKGLEWVSYISNSGSPIYYADSVKGRFTISRDNAKNSLYLQMNSLRAEDTAVYYCARDLPGWYFDLWGRGTLVTVSS
VL: EIVLTQSPATLSLSPGERATLSCRESQSVSSYLAWYQQKPGQAPRLLIYDASNRATGIPARFSGSGSGTDFTLTISSLEPEDFAVYYCQQRNNWPRTFGQGTKVEIK
notes: also called P1-064494-1
B10: P1-064502 (41F11_Vk_R96YA64G) (antibody, V domains shown)
VH: QVQLVESGGGLVKPGGSLRLSCAASGFTFSDYYMSWIRQAPGKGLEWVSYISNSGSPIYYADSVKGRFTISRDNAKNSLYLQMNSLRAEDTAVYYCARDLPGWYFDLWGRGTLVTVSS
VL: EIVLTQSPATLSLSPGERATLSCRASQSVSSYLAWYQQKPGQAPRLLIYDASNRATGIPARFSGSGSGTDFTLTISSLEPEDFAVYYCQQRNNWPYTFGQGTKVEIK
notes: also called P1-064502-1
B11: P1-064534 (41F11_VH_D31E/S35Y/Y50W/S55E/A60H/Y100E/F100aG) (antibody, V domains shown)
VH: QVQLVESGGGLVKPGGSLRLSCAASGFTFSEYYMYWIRQAPGKGLEWVSWISNSGEPIYYHDSVKGRFTISRDNAKNSLYLQMNSLRAEDTAVYYCARDLPGWEGDLWGRGTLVTVSS
VL: EIVLTQSPATLSLSPGERATLSCRASQSVSSYLAWYQQKPGQAPRLLIYDASNRATGIPARFSASGSGTDFTLTISSLEPEDFAVYYCQQRNNWPRTFGQGTKVEIK
notes: Kabat positions; also called P1-064534-1
B12: P1-064528 (41F11_VH_D31E/Y50W/S55E/L96E/Y100E) (antibody, V domains shown)
VH: QVQLVESGGGLVKPGGSLRLSCAASGFTFSEYYMSWIRQAPGKGLEWVSWISNSGEPIYYADSVKGRFTISRDNAKNSLYLQMNSLRAEDTAVYYCARDEPGWEFDLWGRGTLVTVSS
VL: EIVLTQSPATLSLSPGERATLSCRASQSVSSYLAWYQQKPGQAPRLLIYDASNRATGIPARFSASGSGTDFTLTISSLEPEDFAVYYCQQRNNWPRTFGQGTKVEIK
notes: Kabat positions; also called P1-064528-1

Legend:
[1] = molecular target: T1, monovalent hVISTA-ECD (human VISTA extracellular domain with His tail) (human, UniProt Q9H7M9 33-193); assay: SPR, pH 7.4
T1 construct: analyte flowed over captured antibody; also called huVISTA-His
T1 sequence (Q9H7M9 other isoform, or with tags, fused parts or gaps limits assumed): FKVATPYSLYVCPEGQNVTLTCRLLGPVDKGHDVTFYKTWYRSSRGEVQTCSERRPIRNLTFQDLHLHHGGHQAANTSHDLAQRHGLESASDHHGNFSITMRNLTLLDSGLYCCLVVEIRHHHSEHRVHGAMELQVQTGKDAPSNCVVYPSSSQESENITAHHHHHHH
Procedure: (§1) Binding of several preparations of each of the '029 progeny clones and of the parent '029 antibodies, formatted as IgG1.3 antibodies, to human VISTA at pH 6.0 and 7.4 was measured by Surface plasmon resonance (SPR). SPR analysis was performed to measure koff and KD binding affinity measurements for VISTA Abs at acidic and neutral pHs using a Biacore® T100 instrument (GE Healthcare). Protein A (ThermoFisher Scientific catalog #21181) was diluted to 20 ug/ml in 10 mM sodium acetate pH 4.5 and immobilized onto flow cells of a CM5 biosensor following the manufacturer's amine coupling protocol (GE Healthcare), targeting 2,000 RU immobilization density of Protein A per flow cell. SPR experiments were conducted at 37° C. using PBST (137 mM sodium chloride, 2.7 mM potassium chloride, 10 mM phosphate buffer, 0.05% Tween® 20) running buffer at pH 7.4 and 6.0. Antibodies were diluted to 25 nM in PBST pH 7.4, and were captured across active biosensor flow cells at 5 ul/min for 60 seconds. […] Two 15 second injections of 10 mM glycine pH 1.5 were used to regenerate the Protein A capture surface between assay cycles. Rate constants ka (kₒₙ) and kd (koff) were derived from reference flow cell and 0 nM blank-subtracted sensorgrams, and were fit to a 1:1 binding model in Biacore® T200 Evaluation Software v.2.0. The affinity constant, KD was calculated as the ratio of rate constants koff/kₒₙ for each VISTA antibody. […]

[2] = molecular target: T1, monovalent hVISTA-ECD (human VISTA …); assay: SPR, pH 6.0
Procedure: as §1

[3] = molecular target: T1, monovalent hVISTA-ECD (human VISTA …); assay: SPR
Procedure: as §1

Binder | Kd [1] | koff [1] | kon [1] | Kd [2] | koff [2] | kon [2] | KD ratio (pH 7.4/pH 6.0) [3]
B1 | 3.6 nM | 0.000987 s⁻¹ | 274000 M⁻¹ s⁻¹ | 18 nM | 0.0411 s⁻¹ | 2.29e+06 M⁻¹ s⁻¹ | 0.2
B2 | 19.1 nM | 0.00223 s⁻¹ | 117000 M⁻¹ s⁻¹ | 7.81 nM | 0.0178 s⁻¹ | 2.28e+06 M⁻¹ s⁻¹ | 2.45
B3 | 0.196 nM | 0.000109 s⁻¹ | 555000 M⁻¹ s⁻¹ | 0.245 nM | 0.00094 s⁻¹ | 3.84e+06 M⁻¹ s⁻¹ | 0.8
B4 | 44.7 nM | 0.0145 s⁻¹ | 325000 M⁻¹ s⁻¹ | 94.1 nM | 0.157 s⁻¹ | 1.67e+06 M⁻¹ s⁻¹ | 0.48
B5 | 2.36 nM | 0.000755 s⁻¹ | 320000 M⁻¹ s⁻¹ | 14.2 nM | 0.0329 s⁻¹ | 2.32e+06 M⁻¹ s⁻¹ | 0.17
B6 | 26.1 nM | 0.00353 s⁻¹ | 135000 M⁻¹ s⁻¹ | 7.18 nM | 0.0153 s⁻¹ | 2.13e+06 M⁻¹ s⁻¹ | 3.64
B7 | 15.3 nM | 0.00341 s⁻¹ | 223000 M⁻¹ s⁻¹ | 34.3 nM | 0.105 s⁻¹ | 3.07e+06 M⁻¹ s⁻¹ | 0.45
B8 | 6.89 nM | 0.000381 s⁻¹ | 55400 M⁻¹ s⁻¹ | 96.5 nM | 0.0121 s⁻¹ | 126000 M⁻¹ s⁻¹ | 0.07
B9 | 10.3 nM | 0.00207 s⁻¹ | 200000 M⁻¹ s⁻¹ | 35.6 nM | 0.0485 s⁻¹ | 1.36e+06 M⁻¹ s⁻¹ | 0.29
B10 | 40.8 nM | 0.0123 s⁻¹ | 301000 M⁻¹ s⁻¹ | 81.7 nM | 0.332 s⁻¹ | 4.06e+06 M⁻¹ s⁻¹ | 0.5
B11 | 16.2 nM | 0.000675 s⁻¹ | 41700 M⁻¹ s⁻¹ | 9.05 nM | 0.00649 s⁻¹ | 717000 M⁻¹ s⁻¹ | 1.79
B12 | 0.768 nM | 0.000227 s⁻¹ | 296000 M⁻¹ s⁻¹ | 0.167 nM | 0.000584 s⁻¹ | 3.49e+06 M⁻¹ s⁻¹ | 4.6

Source: US20220073617A1 (Five Prime, published 2022)
